According to US11833215B2, “CKIT antibody drug conjugates” (Novartis AG, priority 2014, dated 2023):

Tests used:
Uke-1 cells = assay: ADCC activity in vitro (Calcein release, NK3.3 effector cells); format: cell-based; conditions: unconjugated IgG1, effector to target ratio 20 to 1
Method: The ability of the unconjugated anti-cKIT antibodies (NEG085, 20376) to mediate antibody dependent cellular cytotoxicity was determined versus Uke-1 cells (target cells; generously provided by Professor Walter Fiedler, University Hospital Eppendorf, Hamburg, Germany) in co-incubation with NK3.3 cells (killer cells or effector cells; kindly provided by Jacky Kornbluth from Saint Louis University). […] In order to calculate the antibody specific lysis of the target cells, a parallel incubation of target cells only without antibody or effector cells served as a baseline and negative control, whereas the positive control or maximal lysis or hundred percent specific lysis was determined by lysis of target cells only with a 1% Triton-X 100 solution. […] Following a co-incubation of target and effector cells, the microtiterplate was centrifuged and an aliquot of the supernatant fluid was transferred to another microtiterplate (96 well, flat-bottomed, black with clear bottom; (Corning Costar, catalog #3904, Tewksbury, MA) and the concentration of free Calcein in solution was determined with a fluorescence counter (Victor 3 ® multilabel counter, Perkin Elmer, Waltham, MA).

GIST cell lines = conditions: SR-1 as second therapeutic on Imatinib treated cells; cited from earlier work
SCF binding to cKIT = SCF binding to cKIT (Homo sapiens, UniProt P10721); assay: competition assays using ELISA and FACS
SCF binding to cKIT, sequence (P10721 26-976): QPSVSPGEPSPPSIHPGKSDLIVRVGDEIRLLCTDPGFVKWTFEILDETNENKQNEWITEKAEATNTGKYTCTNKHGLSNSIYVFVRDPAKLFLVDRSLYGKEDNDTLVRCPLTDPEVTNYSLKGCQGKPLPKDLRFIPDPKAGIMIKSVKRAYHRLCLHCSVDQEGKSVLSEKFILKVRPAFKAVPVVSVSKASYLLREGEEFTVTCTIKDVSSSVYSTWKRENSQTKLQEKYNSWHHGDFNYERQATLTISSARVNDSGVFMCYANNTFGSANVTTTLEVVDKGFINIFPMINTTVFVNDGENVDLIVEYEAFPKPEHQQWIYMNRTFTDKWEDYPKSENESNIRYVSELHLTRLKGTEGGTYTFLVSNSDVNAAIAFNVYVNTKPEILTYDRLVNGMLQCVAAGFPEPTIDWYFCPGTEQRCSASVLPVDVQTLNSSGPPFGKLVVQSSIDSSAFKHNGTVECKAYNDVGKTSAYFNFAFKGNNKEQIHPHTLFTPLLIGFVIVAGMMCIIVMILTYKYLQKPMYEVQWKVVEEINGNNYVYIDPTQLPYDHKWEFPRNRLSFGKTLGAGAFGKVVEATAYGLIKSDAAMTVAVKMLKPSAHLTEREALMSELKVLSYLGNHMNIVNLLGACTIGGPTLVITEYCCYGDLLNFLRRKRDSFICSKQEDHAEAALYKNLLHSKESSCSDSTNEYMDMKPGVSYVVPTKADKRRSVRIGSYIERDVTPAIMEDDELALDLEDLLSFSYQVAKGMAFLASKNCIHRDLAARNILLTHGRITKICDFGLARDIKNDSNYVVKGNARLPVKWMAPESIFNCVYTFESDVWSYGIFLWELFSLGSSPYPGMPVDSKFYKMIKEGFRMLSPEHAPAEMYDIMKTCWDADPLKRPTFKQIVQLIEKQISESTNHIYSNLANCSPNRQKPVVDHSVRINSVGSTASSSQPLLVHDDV

human cKIT = target: T1, human cKIT (Homo sapiens, UniProt P10721); assay: SPR (Biacore) affinity measurement; format: binding; conditions: 25° C., 1:1 model
T1 construct: Human cKIT tr. variant 2 , residues 26-520-TAG; made in house; host or cells: HEK293 derived cell line 293FS, transient transfection
T1 sequence (P10721 with tags, fused parts or gaps isoform P10721-2): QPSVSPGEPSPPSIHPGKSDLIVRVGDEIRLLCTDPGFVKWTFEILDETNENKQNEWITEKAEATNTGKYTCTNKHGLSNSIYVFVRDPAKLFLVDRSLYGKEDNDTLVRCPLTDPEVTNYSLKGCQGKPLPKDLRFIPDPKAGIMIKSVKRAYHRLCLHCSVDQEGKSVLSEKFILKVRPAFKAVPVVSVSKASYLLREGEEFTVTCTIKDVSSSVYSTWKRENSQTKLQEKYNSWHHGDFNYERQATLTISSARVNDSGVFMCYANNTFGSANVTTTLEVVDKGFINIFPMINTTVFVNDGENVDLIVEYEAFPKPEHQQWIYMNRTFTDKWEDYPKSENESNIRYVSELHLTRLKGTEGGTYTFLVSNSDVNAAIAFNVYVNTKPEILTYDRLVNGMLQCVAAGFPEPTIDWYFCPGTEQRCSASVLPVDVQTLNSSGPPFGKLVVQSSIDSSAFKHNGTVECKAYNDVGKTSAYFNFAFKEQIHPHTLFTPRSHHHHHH
Method: (§1) Affinity of the antibodies to cKIT species orthologues and also to cKIT was determined using SPR technology using a Biacore® 2000 instrument (GE Healthcare, Pittsburgh, PA) and with CM5 sensor chips.
(§2) Briefly, HBS-P (0.01 M HEPES, pH 7.4, 0.15 M NaCl, 0.005% Surfactant P20) supplemented with 2% Odyssey® blocking buffer (Li-Cor Biosciences, Lincoln, NE) was used as the running buffer for all the experiments. The immobilization level and analyte interactions were measured by response unit (RU). Pilot experiments were performed to test and confirm the feasibility of the immobilization of the anti-human Fc antibody (Catalog number BR100839, GE Healthcare, Pittsburgh, PA) and the capture of the test antibodies.
(§3) For kinetic measurements, the experiments were performed in which the antibodies were captured to the sensor chip surface via the immobilized anti-human Fc antibody and the ability of the cKIT proteins to bind in free solution was determined. Briefly, 25 μg/ml of anti-human Fc antibody at pH 5 was immobilized on a CM5 sensor chip through amine coupling at flow rate of 5 μl/minute on all two flow cells to reach 10,500 RUs. 0.1-1 μg/ml of test antibodies were then injected at 10 μl/min for 1 minute. Captured levels of the antibodies were generally kept below 200 RUs. Subsequently, 3.125 −50 nM of cKIT receptor extracellular domains (ECD) were diluted in a 2-fold series and injected at a flow rate of 40 μl/min for 3 min over both reference and test flow cells. Table of tested ECDs is listed below (Table 6). Dissociation of the binding was followed for 10 min. After each injection cycle, the chip surface was regenerated with 3 M MgCl2 at 10 μl/min for 30 seconds.

mouse cKIT = target: T2, mouse cKIT (Mus musculus, UniProt P05532); assay: SPR (Biacore) affinity measurement; format: binding; conditions: 25° C., 1:1 model
T2 construct: cKIT receptor extracellular domains (ECD) were diluted in a 2-fold series
T2 sequence (P05532 25-527 limits assumed): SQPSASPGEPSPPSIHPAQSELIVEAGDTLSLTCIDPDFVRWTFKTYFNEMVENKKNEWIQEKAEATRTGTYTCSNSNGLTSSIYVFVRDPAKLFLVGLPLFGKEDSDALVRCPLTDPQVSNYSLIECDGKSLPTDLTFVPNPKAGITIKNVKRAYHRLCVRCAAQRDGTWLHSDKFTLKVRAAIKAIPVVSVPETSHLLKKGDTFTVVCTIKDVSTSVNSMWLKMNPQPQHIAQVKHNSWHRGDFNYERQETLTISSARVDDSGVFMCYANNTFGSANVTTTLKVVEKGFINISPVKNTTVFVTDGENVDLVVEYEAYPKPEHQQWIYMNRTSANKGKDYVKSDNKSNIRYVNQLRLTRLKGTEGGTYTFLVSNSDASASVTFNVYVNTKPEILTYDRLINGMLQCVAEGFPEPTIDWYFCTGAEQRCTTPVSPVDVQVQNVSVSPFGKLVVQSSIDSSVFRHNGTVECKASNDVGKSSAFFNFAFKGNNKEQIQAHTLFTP
Method: as §1, §2, §3

rat cKIT = assay: SPR (Biacore) affinity measurement; format: binding; conditions: 25° C., 1:1 model
rat cKIT, sequence (as listed by the source): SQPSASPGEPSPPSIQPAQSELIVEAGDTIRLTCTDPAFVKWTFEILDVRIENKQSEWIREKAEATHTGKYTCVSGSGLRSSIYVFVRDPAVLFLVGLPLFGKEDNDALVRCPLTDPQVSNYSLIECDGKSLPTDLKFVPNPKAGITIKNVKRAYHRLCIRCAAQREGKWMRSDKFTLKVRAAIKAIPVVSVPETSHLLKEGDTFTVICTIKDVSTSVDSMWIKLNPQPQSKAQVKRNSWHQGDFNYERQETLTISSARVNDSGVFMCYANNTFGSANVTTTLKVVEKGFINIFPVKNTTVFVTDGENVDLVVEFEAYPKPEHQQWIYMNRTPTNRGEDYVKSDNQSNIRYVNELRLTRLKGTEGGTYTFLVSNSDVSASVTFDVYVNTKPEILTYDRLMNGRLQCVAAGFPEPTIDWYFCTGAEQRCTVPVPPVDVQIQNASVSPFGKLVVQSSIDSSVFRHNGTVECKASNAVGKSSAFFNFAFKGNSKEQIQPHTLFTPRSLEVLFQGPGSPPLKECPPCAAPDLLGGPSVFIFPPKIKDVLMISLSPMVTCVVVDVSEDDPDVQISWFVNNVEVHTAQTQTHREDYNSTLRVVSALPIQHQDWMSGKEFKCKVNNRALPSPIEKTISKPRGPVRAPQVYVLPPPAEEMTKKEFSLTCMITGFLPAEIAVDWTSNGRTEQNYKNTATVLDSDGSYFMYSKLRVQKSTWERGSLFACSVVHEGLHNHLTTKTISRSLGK
Method: as §1, §2, §3

Molecule: MabCampath® [reference compound]
- ADCC killing of target cells (Uke-1 cells): mediated ADCC killing

Molecule: Cc1ccc(NC(=O)c2ccc(CN3CCN(C)CC3)cc2)cc1Nc1nccc(-c2cccnc2)n1 [imatinib]
- proliferation of GIST cells (GIST cell lines): significantly reduce proliferation

B1: 9P3: hybridoma derived anti-cKIT antibody, VH SEQ ID NO:9, VL SEQ ID NO:18 (antibody, listed as Homo sapiens, V domains shown)
VH: EVRLVESEGGLVQPRSSMKLSCTASGFTFSDYYMAWVRQVPEKGLEWVANINYDGSSTYYLDSLKSRFIISRDNAKNILYLQMSSLKSEDTATYYCARGDYYGTTYWYFDVWGTGTTVTVSS
VL: DIQMTQTTSSLSASLGDRVTISCRASQDISNYLNWYQQKPDGTVKLLIYYTSRLQSGVPSRFSGSGSGTDYSLTISNLEQEDIATYFCQQGKKLWSFGGGTKLEIKR
- blocking of SCF binding to cKIT (SCF binding to cKIT): partial blocking
- Affinity human cKIT (nM) (human cKIT): nanomolar level
- Affinity mouse cKIT (nM) (mouse cKIT): Not reactive
- Affinity to rat cKIT (nM) (rat cKIT): Not reactive

B2: NEG027: anti-cKIT antibody of Table 3, VH SEQ ID NO 64, VL SEQ ID NO 73 (antibody, listed as Homo sapiens, V domains shown)
VH: EVQLVESGGGLVQPGGSLRLSCAASGFTFSDYYMAWVRQAPGKGLEWVASINQNTGSTYYLDSVRGRFTISRDNAKNSLYLQMNSLRAEDTAVYYCARGDYYGTTYWYFDVWGQGTTVTVSS
VL: EIVMTQSPATLSLSPGERATLSCRASQDISNYLNWYQQKPGQAPRLLIYYTSRLQSGIPARFSGSGSGTDYTLTISSLEPEDFAVYYCQQGKKLWSFGGGTKVEIK
- Affinity human cKIT (nM) (human cKIT): nanomolar level
- Affinity mouse cKIT (nM) (mouse cKIT): Not reactive
- Affinity to rat cKIT (nM) (rat cKIT): Not reactive

B3: NEG086: anti-cKIT antibody of Table 3, VH SEQ ID NO 100, VL SEQ ID NO 109 (antibody, listed as Homo sapiens, V domains shown)
VH: EVQLVESGGGLVQPGGSLRLSCAASGFTFSDYYMAWVRQAPGKGLEWVANINQIAGSTYYVDSVQGRFTISRDNAKNSLYLQMNSLRAEDTAVYYCARGDYYGTTYWYFDVWGQGTTVTVSS
VL: DIQMTQSPSSLSASVGDRVTITCRASQSISSYLNWYQQKPGKAPKLLIYYTSRLQSGVPSRFSGSGSGTDFTLTISSLQPEDFATYYCQQGRRLWSFGGGTKVEIK
- Affinity human cKIT (nM) (human cKIT): nanomolar level
- Affinity mouse cKIT (nM) (mouse cKIT): Not reactive
- Affinity to rat cKIT (nM) (rat cKIT): Not reactive

B4: NEG026: anti-cKIT antibody of Table 3, VH SEQ ID NO 46, VL SEQ ID NO 55 (antibody, listed as Homo sapiens, V domains shown)
VH: EVQLVESGGGLVQPGGSLRLSCAASGFTFSDYYMAWVRQAPGKGLEWVANINQNTGSTYYVDSVQGRFTISRDNAKNSLYLQMNSLRAEDTAVYYCARGDYYGTTYWYFDVWGQGTTVTVSS
VL: EIVMTQSPATLSLSPGERATLSCRASQDISNYLNWYQQKPGQAPRLLIYYTSRLQSGIPARFSGSGSGTDYTLTISSLEPEDFAVYYCQQGKKLWSFGGGTKVEIK
- Affinity mouse cKIT (nM) (mouse cKIT): Not reactive
- Affinity to rat cKIT (nM) (rat cKIT): Not reactive

B5: NEG087: anti-cKIT antibody of Table 3, VH SEQ ID NO 118, VL SEQ ID NO 127 (antibody, listed as Homo sapiens, V domains shown)
VH: EVQLVESGGGLVQPGGSLRLSCAASGFTFSDYYMAWVRQAPGKGLEWVASINQNTGSTYYLDSVRGRFTISRDNAKNSLYLQMNSLRAEDTAVYYCARGDYYGTTYWYFDVWGQGTTVTVSS
VL: DIQMTQSPSSLSASVGDRVTITCRASQSISSYLNWYQQKPGKAPKLLIYYTSRLQSGVPSRFSGSGSGTDFTLTISSLQPEDFATYYCQQGRRLWSFGGGTKVEIK
- Affinity human cKIT (nM) (human cKIT): nanomolar level
- Affinity mouse cKIT (nM) (mouse cKIT): Not reactive
- Affinity to rat cKIT (nM) (rat cKIT): Not reactive
